{
  "source": "the supplement of paper PMC11246515",
  "test": "total protein half-life in vivo (active degradation + dilution); higher = more stable protein",
  "key": {"[1]": {"conditions": "E. coli NCM3722 delta-clpP delta-lon delta-hslV, growth: N-lim chemostat, doubling time 6 h"}, "[2]": {"conditions": "E. coli NCM3722 delta-clpP, growth: N-lim chemostat, doubling time 6 h"}, "[3]": {"conditions": "E. coli NCM3722 delta-hslV, growth: N-lim chemostat, doubling time 6 h"}, "[4]": {"conditions": "E. coli NCM3722 delta-lon, growth: N-lim chemostat, doubling time 6 h"}, "[5]": {"conditions": "E. coli NCM3722 delta-smpB, growth: N-lim chemostat, doubling time 6 h"}, "[6]": {"conditions": "wild type E. coli NCM3722, growth: C-lim chemostat, doubling time 3 h"}, "[7]": {"conditions": "wild type E. coli NCM3722, growth: C-lim chemostat, doubling time 6 h"}, "[8]": {"conditions": "wild type E. coli NCM3722, growth: C-lim chemostat, doubling time 12 h"}, "[9]": {"conditions": "wild type E. coli NCM3722, growth: N-lim chemostat, doubling time 6 h"}, "[10]": {"conditions": "wild type E. coli NCM3722, growth: N-lim chemostat, doubling time 12 h"}, "[11]": {"conditions": "wild type E. coli NCM3722, growth: P-lim chemostat, doubling time 6 h"}, "[12]": {"conditions": "wild type E. coli NCM3722, growth: P-lim chemostat, doubling time 12 h"}},
  "note": "± gives the standard deviation of the averaged measurements.",
  "data": [
    {"sequence": "MLLNMMCGRQLSAISLCLAVTFAPLFNAQADEPEVIPGDSPVAVSEQGEALPQAQATAIMAGIQPLPEGAAEKARTQIESQLPAGYKPVYLNQLQLLYAARDMQPMWENRDAVKAFQQQLAEVAIAGFQPQFNKWVELLTDPGVNGMARDVVLSDAMMGYLHFIANIPVKGTRWLYSSKPYALATPPLSVINQWQLALDKGQLPTFVAGLAPQHPQYAAMHESLLALLCDTKPWPQLTGKATLRPGQWSNDVPALREILQRTGMLDGGPKITLPGDDTPTDAVVSPSAVTVETAETKPMDKQTTSRSKPAPAVRAAYDNELVEAVKRFQAWQGLGADGAIGPATRDWLNVTPAQRAGVLALNIQRLRLLPTELSTGIMVNIPAYSLVYYQNGNQVLDSRVIVGRPDRKTPMMSSALNNVVVNPPWNVPPTLARKDILPKVRNDPGYLESHGYTVMRGWNSREAIDPWQVDWSTITASNLPFRFQQAPGPRNSLGRYKFNMPSSEAIYLHDTPNHNLFKRDTRALSSGCVRVNKASDLANMLLQDAGWNDKRISDALKQGDTRYVNIRQSIPVNLYYLTAFVGADGRTQYRTDIYNYDLPARSSSQIVSKAEQLIR", "values": [
      {"measurement": "total protein half-life in vivo", "setting": "[1]", "result": "5.42 ± 0.21", "unit": "h"},
      {"measurement": "total protein half-life in vivo", "setting": "[2]", "result": "5.32 ± 1", "unit": "h"},
      {"measurement": "total protein half-life in vivo", "setting": "[3]", "result": "5.764 ± 0.032", "unit": "h"},
      {"measurement": "total protein half-life in vivo", "setting": "[4]", "result": "5.39 ± 0.3", "unit": "h"},
      {"measurement": "total protein half-life in vivo", "setting": "[5]", "result": "4.989 ± 0.017", "unit": "h"},
      {"measurement": "total protein half-life in vivo", "setting": "[6]", "result": "3.03 ± 0.053", "unit": "h"},
      {"measurement": "total protein half-life in vivo", "setting": "[7]", "result": "6.5 ± 0.17", "unit": "h"},
      {"measurement": "total protein half-life in vivo", "setting": "[8]", "result": "12.2 ± 1.1", "unit": "h"},
      {"measurement": "total protein half-life in vivo", "setting": "[9]", "result": "5.57 ± 0.65", "unit": "h"},
      {"measurement": "total protein half-life in vivo", "setting": "[10]", "result": "8.84 ± 0.75", "unit": "h"},
      {"measurement": "total protein half-life in vivo", "setting": "[11]", "result": "4.75 ± 0.52", "unit": "h"},
      {"measurement": "total protein half-life in vivo", "setting": "[12]", "result": "9.2 ± 1.2", "unit": "h"}
    ]},
    {"sequence": "MLLPWLILIPFIGGFLCWQTERFGVKVPRWIALITMGLTLALSLQLWLQGGYSLTQSAGIPQWQSEFDMPWIPRFGISIHLAIDGLSLLMVVLTGLLGVLAVLCSWKEIEKYQGFFHLNLMWILGGVIGVFLAIDMFLFFFFWEMMLVPMYFLIALWGHKASDGKTRITAATKFFIYTQASGLVMLIAILALVFVHYNATGVWTFNYEELLNTPMSSGVEYLLMLGFFIAFAVKMPVVPLHGWLPDAHSQAPTAGSVDLAGILLKTAAYGLLRFSLPLFPNASAEFAPIAMWLGVIGIFYGAWMAFAQTDIKRLIAYTSVSHMGFVLIAIYTGSQLAYQGAVIQMIAHGLSAAGLFILCGQLYERIHTRDMRMMGGLWSKMKWLPALSLFFAVATLGMPGTGNFVGEFMILFGSFQVVPVITVISTFGLVFASVYSLAMLHRAYFGKAKSQIASQELPGMSLRELFMILLLVVLLVLLGFYPQPILDTSHSAIGNIQQWFVNSVTTTRP [P0AFE8]", "values": [
      {"measurement": "total protein half-life in vivo", "setting": "[1]", "result": "7.36 ± 0.89", "unit": "h"},
      {"measurement": "total protein half-life in vivo", "setting": "[2]", "result": "6.54 ± 0.28", "unit": "h"},
      {"measurement": "total protein half-life in vivo", "setting": "[3]", "result": "5.66 ± 0.85", "unit": "h"},
      {"measurement": "total protein half-life in vivo", "setting": "[4]", "result": "6.41 ± 0.17", "unit": "h"},
      {"measurement": "total protein half-life in vivo", "setting": "[5]", "result": "6.818 ± 0.033", "unit": "h"},
      {"measurement": "total protein half-life in vivo", "setting": "[10]", "result": "12.04 ± 0.017", "unit": "h"},
      {"measurement": "total protein half-life in vivo", "setting": "[11]", "result": "6.24 ± 0.25", "unit": "h"}
    ]},
    {"sequence": "MLNNAMSVVILAAGKGTRMYSDLPKVLHTLAGKAMVQHVIDAANELGAAHVHLVYGHGGDLLKQALKDDNLNWVLQAEQLGTGHAMQQAAPFFADDEDILMLYGDVPLISVETLQRLRDAKPQGGIGLLTVKLDDPTGYGRITRENGKVTGIVEHKDATDEQRQIQEINTGILIANGADMKRWLAKLTNNNAQGEYYITDIIALAYQEGREIVAVHPQRLSEVEGVNNRLQLSRLERVYQSEQAEKLLLAGVMLRDPARFDLRGTLTHGRDVEIDTNVIIEGNVTLGHRVKIGTGCVIKNSVIGDDCEISPYTVVEDANLAAACTIGPFARLRPGAELLEGAHVGNFVEMKKARLGKGSKAGHLTYLGDAEIGDNVNIGAGTITCNYDGANKFKTIIGDDVFVGSDTQLVAPVTVGKGATIAAGTTVTRNVGENALAISRVPQTQKEGWRRPVKKK [P0ACC7]", "values": [
      {"measurement": "total protein half-life in vivo", "setting": "[1]", "result": "6.48 ± 0.94", "unit": "h"},
      {"measurement": "total protein half-life in vivo", "setting": "[2]", "result": "5.96 ± 1.1", "unit": "h"},
      {"measurement": "total protein half-life in vivo", "setting": "[3]", "result": "5.08 ± 0.11", "unit": "h"},
      {"measurement": "total protein half-life in vivo", "setting": "[4]", "result": "5.46 ± 0.28", "unit": "h"},
      {"measurement": "total protein half-life in vivo", "setting": "[5]", "result": "4.93 ± 0.12", "unit": "h"},
      {"measurement": "total protein half-life in vivo", "setting": "[6]", "result": "2.92 ± 0.096", "unit": "h"},
      {"measurement": "total protein half-life in vivo", "setting": "[7]", "result": "5.9 ± 0.48", "unit": "h"},
      {"measurement": "total protein half-life in vivo", "setting": "[8]", "result": "11.8 ± 0.66", "unit": "h"},
      {"measurement": "total protein half-life in vivo", "setting": "[9]", "result": "5.122 ± 0.044", "unit": "h"},
      {"measurement": "total protein half-life in vivo", "setting": "[10]", "result": "9.31 ± 0.57", "unit": "h"},
      {"measurement": "total protein half-life in vivo", "setting": "[11]", "result": "5.96 ± 0.37", "unit": "h"},
      {"measurement": "total protein half-life in vivo", "setting": "[12]", "result": "12.9 ± 0.34", "unit": "h"}
    ]},
    {"sequence": "MLNPIVRKFQYGQHTVTLETGMMARQATAAVMVSMDDTAVFVTVVGQKKAKPGQDFFPLTVNYQERTYAAGRIPGSFFRREGRPSEGETLIARLIDRPIRPLFPEGFVNEVQVIATVVSVNPQVNPDIVAMIGASAALSLSGIPFNGPIGAARVGYINDQYVLNPTQDELKESKLDLVVAGTEAAVLMVESEAQLLSEDQMLGAVVFGHEQQQVVIQNINELVKEAGKPRWDWQPEPVNEALNARVAALAEARLSDAYRITDKQERYAQVDVIKSETIATLLAEDETLDENELGEILHAIEKNVVRSRVLAGEPRIDGREKDMIRGLDVRTGVLPRTHGSALFTRGETQALVTATLGTARDAQVLDELMGERTDTFLFHYNFPPYSVGETGMVGSPKRREIGHGRLAKRGVLAVMPDMDKFPYTVRVVSEITESNGSSSMASVCGASLALMDAGVPIKAAVAGIAMGLVKEGDNYVVLSDILGDEDHLGDMDFKVAGSRDGISALQMDIKIEGITKEIMQVALNQAKGARLHILGVMEQAINAPRGDISEFAPRIHTIKINPDKIKDVIGKGGSVIRALTEETGTTIEIEDDGTVKIAATDGEKAKHAIRRIEEITAEIEVGRVYTGKVTRIVDFGAFVAIGGGKEGLVHISQIADKRVEKVTDYLQMGQEVPVKVLEVDRQGRIRLSIKEATEQSQPAAAPEAPAAEQGE", "values": [
      {"measurement": "total protein half-life in vivo", "setting": "[1]", "result": "6.65 ± 0.71", "unit": "h"},
      {"measurement": "total protein half-life in vivo", "setting": "[2]", "result": "6.67 ± 0.63", "unit": "h"},
      {"measurement": "total protein half-life in vivo", "setting": "[3]", "result": "5.92 ± 0.65", "unit": "h"},
      {"measurement": "total protein half-life in vivo", "setting": "[4]", "result": "6.01 ± 0.18", "unit": "h"},
      {"measurement": "total protein half-life in vivo", "setting": "[5]", "result": "5.58 ± 0.41", "unit": "h"},
      {"measurement": "total protein half-life in vivo", "setting": "[6]", "result": "3.25 ± 0.055", "unit": "h"},
      {"measurement": "total protein half-life in vivo", "setting": "[7]", "result": "6.31 ± 0.21", "unit": "h"},
      {"measurement": "total protein half-life in vivo", "setting": "[8]", "result": "11.5 ± 0.16", "unit": "h"},
      {"measurement": "total protein half-life in vivo", "setting": "[9]", "result": "5.78 ± 0.26", "unit": "h"},
      {"measurement": "total protein half-life in vivo", "setting": "[10]", "result": "11.8 ± 0.57", "unit": "h"},
      {"measurement": "total protein half-life in vivo", "setting": "[11]", "result": "6.05 ± 0.14", "unit": "h"},
      {"measurement": "total protein half-life in vivo", "setting": "[12]", "result": "12.4 ± 1.5", "unit": "h"}
    ]}
  ]
}
